From patent publication CN111944047A (CHONGQING PREC BIOTECH CO LTD, dated 2020)
Values belong to the binder of their own block, whether it stands above or below them.

Molecular target: T1, hBCMA-hFc (human, UniProt Q02223 1-54, limits assumed)
T1 construct: not shown: human Fc (hFc)
T1 sequence (looked up): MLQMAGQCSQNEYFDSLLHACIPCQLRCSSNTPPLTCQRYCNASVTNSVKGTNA
Experiment: Fortebio Octet K2 / Nicoya OpenSPR, hBCMA-hFc loaded on sensor, scFv in solution

- Kd: 4.65 nM
- koff: 0.000438 s⁻¹
- kon: 94200 M⁻¹ s⁻¹
B1: ScFv1 (scFv)
scFv: DIVMTQSPDSLAVSLGERATINCRASESVSIHGTHLMHWYQQLPGTPPKLLIYAASNLESGVPDRFSGSGSGTDFTLKISPVEAEDVGVYYCQQSIEDPRTFGGGTKLEIKGSTSGSGKPGSGEGSTKGQVQLVQSGPALVKPGASVKVSCKASGYTFTDYYMNWVRQAHGQGLEWMGVINPYNGGTDYNQKFKGRVTMTRDTSISTAYMELSSLRSEDTAVYYCARSVYDYPFDYWGQGTLVTVSS
notes: The scFv is VL-Linker-VH, expressed in CHO cells and purified; Any tag on the purified protein is not described for ScFv1; also called 靶向BCMA人源化单克隆抗体; 抗BCMA的人源化单链抗体

- Kd: 16.4 nM
- koff: 0.00437 s⁻¹
- kon: 266000 M⁻¹ s⁻¹
B2: ScFv2 (scFv)
scFv: DIVLTQSPASLAVSLGQRATITCRASESVSIHGTHLMHWYQQKPGQPPVLVIYAASNLESGVPARFSGSGSGTDFTLKIHPVEAEDVGVYYCQQSIEDPRTFGGGTKLEIKGSTSGSGKPGSGEGSTKGQVQLVQSGPEVKKPGASVKVSCKASGYTFTDYYMNWVRQMHGKGLEWMGVINPYNGGTDYNQKFKGRVTITADKSTSTAYMELSSLRSEDTAVYYCARSVYDYPFDYWGQGTLVTVSS
notes: also called 人源化ScFv2; 靶向BCMA人源化单克隆抗体
